Test: soluble on expression in E. coli; label from the status in PepcDB or PDB records

Sequence	soluble on expression in E. coli
MGSSHHHHHHSSGRENLYFQGHMNRTLYTLLFHLGLPLVALRLWWRARQAPAYAKRIGERFSLSLPEVPPGGIWVHAVSVGESIAAAPMVRALLERHPQLPVTVTCMTPTGSERIRALFGEQVRHCYLPYDLPWAAARFLDRVRPRLAVIMETELWPNHIHACAVRGIPVALANARLSERSARGYARFAGLTRPMLAELSWIAVQTEAEAERFRRLGARPECVSVTGSIKFDLRIDPQLPLAAAALREEWDATARPLWIAASTHAGEDEIVLAAHRRLLETRPDALLILVPRHPERFAGVHELCRREGFATVRRSGGEPVARATQVLLGDTMGELLFLYALADIAFVGGSLVPNGGHNLLEPAALGKPVFAGPHLFNFLDIAAQLRDAGALLEVTDAGELCDGLARLWAQPEVATAMATAGEKVLRNNQGALERLLAGLARLLGRGG	soluble
MGSTSSLYAAIDLGSNSFHMLVVREVAGSIQTLTRIKRKVRLAAGLNSENALSNEAMERGWQCLRLFAERLQDIPPSQIRVVATATLRLAVNAGDFIAKAQEILGCPVQVISGEEEARLIYQGVAHTTGGADQRLVVDIGGASTELVTGTGAQTTSLFSLSMGCVTWLERYFADRNLGQENFDAAEKAAREVLRPVADELRYHGWKVCVGASGTVQALQEIMMAQGMDERITLEKLQQLKQRAIHCGRLEELEIDGLTLERALVFPSGLAILIAIFTELNIQCMTLAGGALREGLVYGMLHLAVEQDIRSRTLRNIQRRFMIDIDQAQRVAKVAANFFDQVENEWHLEAISRDLLISACQLHEIGLSVDFKQAPQHAAYLVRNLDLPGFTPAQKKLLATLLLNQTNPVDLSSLHQQNAVPPRVAEQLCRLLRLAIIFASRRRDDLVPEMTLQANHELLTLTLPQGWLTQHPLGKEIIAQESQWQSYVHWPLEVH	soluble
MGSVITKETVLQENIYLKKLSGLEPVDDYDPFWNKLLSFSLKFDDDDEDTRIALESALDDHLQCLMYNTQTTGNFAAFIRLFLRRATELKTSEQCENKIYLWQTSNALLILRYIARFLTQRMTEKEFVRIFAKSHESTETESSSTSSSSDEEDDDEQKSENENNNGATKYIPIVFQNTAEEFTYELVSILINISVNETTLAIHVEAVRCLLTLLSSQLYNESIVNTSIVFRFFIDGSCAKHAASLTKTLLLNYLIHNSEYHMTVQKPQESIVFGLASSMWSMVQMATGIDSAEEEKKPPLTLGNLSILLLLNLSCHQPLNSSNPFKETLALFQNAQEVSTLPTQIVSFKIDYNGLYERLCATAGQEPPMLLLYMLLQANSGFRNYVLSRINLENLVVPVLRILHDGVATSNNSHHVYLALIVALILSEDDIFCKIIHETMIKDLGWLDSDFSVREISLGGLTTLVLVRAIQKNALKTRDRYLHTNCLAALANMSAFFKNLAPIVCQRLISLLDLLTKRHAKMVDHMRVSSQNDVADGQPINFHDDITALEEGIRTLLEIINSALCGGLRHNSHLIYNLLYHRALFDAYVQHPMFQDLLVNIAAVISHFSSKVIHVPAGDGSTMLQIIEKEANIWPTDRLAKFPELKFRYVEDEYTVDFFVPYVWRLSVQHSGIYFETSRIKIFNAQSIA	not soluble
MGTFREEGSVSSGTKQEFHTGKLVTTKGDKELLIDNEKVTSGHTTTTRRSCSKVITKTVTNADGRTETTKEVVKSEDGSDCGDADFDWHHTFPSRGNLDDFFHRDKDDFFTRSSHEFDGRTGLAPEFAALGESGSSSSKTSTHSKQFVSSSTTVNRGGSAIESKHF	soluble
MGTGSGGPIGVSPFHSRGALKGFVISGRWPDSTKEWAQLLMVAVRVASLPGLLSTTTVFGAREELPDEPEPGTVGLVLAEGTVFGESAIQPGYFADHQPPALLMLHPPSETTPSLPECTGAASGCVLLPGLPYLGLEHRAAWVEAEADGTITSMVSRVGVDPISHPDTAILAMLLAA	soluble
MGVILLLLIIVFSFSKEAYYCIQVLSSRDLSSAERAYRKLADYPHARIEKIGDYYTVRVGLWENKSKAKEYLSQVKSVYPGAFLRTCYYIEDRIVSINKGNVKKKVESFNGKELVLHGKNEKELICKAVKKVFEDIVSFEGKLTKREITFKSYFPYSVADAVNYALILNKKEGFIPVRCRVYKRDKITYVLELEGFKNGKVKGIKAVDYASVTYRNKVLRLKLIF	not soluble
MGVTLAKGGNVSLDKQAPNLTAVAVGLGWDARSTTGHEFDLDASALATGENKKVLSDQHFVFYNNLRSPDGSIQHEGDNLTGEGDGDDEVINVDLKAVPPNVTNIFFPVSIHEAELRGQNFGQVTNAFIRVVDRSTGNELVRYDLSEDASSETAMTFGELYRHNGEWKFRAIGQGYASGLSGIARDYGVNI	not soluble
MGYPVILHLRGRRAVVVGGGKVAARKIHGLLEAGAEIVMIAPEAEPELQALAAGGMIVWKKKRFDPDDLAEAFLVIAATNDRKVNEAVTQAASSGQLVNVVDDPERCDFHVPAVIRRGPLTIAVSTGGASPAVARRIRRELEEKYGEEYRPYLEFLQRARGIVLREVEDAEGRKRLFQALAADSFRQSGRWEEEFTRLLAKEKERNKEGERGR	soluble
MHAFPLTLDNRLAEALPLWRNLARTDRAPRRNIDLADWKADWRELIAALDRFSRSHGYRQPFAAQGHAALENAWAWGQAAENASTLLLKAIDRGLAGAELRSIYLETAALWLDYSRLLGAARDSLREQGEVDFETAPALAPRTGQYPFALQLLAMGVLLDAQELIPALVEEVLQFDTDRLLDYLGAAALGLTSASEETFHPRPFGQLRAFFEEADGSDAQALAPYLQSQYREFFQLSPKAQKKTRRLTGPYAWGWWAMEVSALGVLYGWDDGVLRASPHYLGDLVDYARARGDA	soluble
MHALVQLRGEVNMHTDIQDTLEMLNIHHVNHCTLVPETDAYRGMVAKVNDFVAFGEPSQETLETVLATRAEPLEGDADVDDEWVAEHTDYDDISGLAFALLSEETTLREQGLSPTLRLHPPRGGHDGVKHPVKEGGQLGKHDTEGIDDLLEAMR	soluble
MHDFVGFMNKISQINRDLDKYDHTINQVDSLHKRLLTEVNEEQASHLRHSLDNFVAQATDLQFKLKNEIKSAQRDGIHDTNKQAQAENSRQRFLKLIQDYRIVDSNYKEENKEQAKRQYMIIQPEATEDEVEAAISDVGGQQIFSQALLNANRRGEAKTALAEVQARHQELLKLEKSMAELTQLFNDMEELVIEQQ	soluble
MHDISSLTTRTKTLPPLRVGVGGPVGSGKTTLLEMVCKAMYPQFDLIAITNDIYTKEDQRLLTLSGALPPERILGVETGGCPHTAIREDASINLIAIDQMLEQFPDADIVFVESGGDNLAATFSPELSDLTLYIIDVASGEKIPRKGGPGITKSDLFIINKTDLAPYVGADLAVMEADTRRMRGDKPFVMCNLKTGDGLDQVIAFLKTEGLFRGLEHHHHHH	soluble
MHERLNFPKVELHLHLDGAVRFDTLIDLSQQKGIPLAGAKTVEELKKVLVTHEPANLSKVLEAFEIFLPVIRGDLAAIERVAYELCEDQHNNGVVYFEGRYSPHLLLCNDYPEVTAAHVVAAVKKGFDRGEKQFGIKARSILCCIRGLDKKFPQLILDLATDLKQLGVVAIDVAGSAHGADEQYEPEVVAAFQEAHKRGIHRTVHAGESGGPKEVIKAIEDMYAERIGHGYRVMRDEEMYLEHFVNSKNVHLEACPYSSVMTGAVPLDWKNHPIARWAKDDVNFSVSRDDPTCFDNSMLSELTLVHKQIGLDVHQLWKAQLNAARSCFLPEDEKAELVKRVEAGEPPRP	not soluble
MHHHHHHGTSLYKKAGSENLYFQGITTRTARQCGQADYGWLQARYTFSFGHYFDPKLLGYASLRVLNQEVLAPGAAFQPRTYPKVDILNVILDGEAEYRDSEGNHVQASAGEALLLSTQPGVSYSEHNLSKDKPLTRMQLWLDACPQRENPLIQKLALNMGKQQLIASPEGAMGSLQLRQQVWLHHIVLDKGESANFQLHGPRAYLQSIHGKFHALTHHEEKAALTCGDGAFIRDEANITLVADSPLRALLIDLPV	soluble
